The text below walks through data of FireProtDB (doi:10.1021/bi00548a004).

B1: Tryptophan synthase alpha chain, P0A877 (parent)
chain: MERYESLFAQLKERKEGAFVPFVTLGDPGIEQSLKIIDTLIEAGADALELGIPFSDPLADGPTIQNATLRAFAAGVTPAQCFEMLALIRQKHPTIPIGLLMYANLVFNKGIDEFYAQCEKVGVDSVLVADVPVEESAPFRQAALRHNVAPIFICPPNADDDLLRQIASYGRGYTYLLSRAGVTGAENRAALPLNHLVAKLKEYNAAPPLQGFGISAPDQVKAAIDAGAAGAISGSAIVKIIEQHINEPEKMLAALKVFVQPMKAATRS

The variants in this series derive from B1. The settings on record: Escherichia coli (strain K12), pH 7.8, Thermal, DSC, Sodium phosphate 1 mM, reversible: yes, structure 1WQ5, whole UniProt chain shown.

By Tm is commonly meant the temperature at which the thermal transition is half complete. As to G211E, the Tm came out at 59.6 °C; the “change of melting temperature, mutant - wild type (higher = more stable)” value was determined as 1.8 °C; the “heat capacity change of unfolding” value came out at 2.7 kcal/mol/K; the “unfolding enthalpy (calorimetric)” value turned out to be 109 kcal/mol. Also, the “unfolding enthalpy (van 't Hoff)” value stood at 107 kcal/mol. Also, under “57.8 °C, EDTA 0.2 mM”, the “ddG of mutation (higher = less stable)” value was -0.6 kcal/mol and the “heat capacity change of unfolding” value turned out to be 2.7 kcal/mol/K.
G211R: the Tm came to 58 °C; the “change of melting temperature, mutant - wild type (higher = more stable)” value was 0.2 °C; the “heat capacity change of unfolding” value is 2.8 kcal/mol/K; the “unfolding enthalpy (calorimetric)” value is 111 kcal/mol. For the same variant, the “unfolding enthalpy (van 't Hoff)” value stood at 113 kcal/mol. For the same variant, for the setting “57.8 °C, EDTA 0.2 mM”, the “ddG of mutation (higher = less stable)” value was -0.1 kcal/mol and the “heat capacity change of unfolding” value amounted to 2.8 kcal/mol/K.
